Test: yeast display, Sf9 membrane polyspecificity reagent, FACS + sequencing; frameworks hold sequencing errors
Method in brief: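 Polyreactivity labels are assigned by the sorting gate from which each nanobody was recovered. The gates were low and high (top ~1%), set on anti-HA fluorescence for expression and streptavidin fluorescence for reagent binding. Before sorting, galactose-induced (36–48 hours) yeast display cells were stained for 1 hour at 4 °C with 10% biotinylated, detergent-solubilized Sf9 membrane reagent.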

Sequence	polyreactivity (PSR sort gate)
QVQLVESGGGLVQSRGSLRLSWAASGSTFTYNTMGWYRQAPGKERELVAAISSGGSTYYADSVKGRFTISRDNAKNTVFLQMNSLKPEDTAVYYCAATAQKDSRYGSRYYYWGQGTQVTVSS	high polyreactivity
QVQLVESGGGLVQAGGSLRLSCAASGYTSYTYTMGWYRQAPGKERELVAAISRRSDTTYADSVKGRFTISRDNAKNTVYLQMNSLKPEDTAVYYCAAVRVSYRSLSKSYYWGQGTQVTVSS	high polyreactivity
QVQLVESAGGLVQAGGSLRLTCAASGNIFRRYAMGWYRQAPGKERELVAAISWRSGNTYYADSVKGRFTISRDNAKNTVYLQMNSLKPEDTAVYYCNKDYWWIPQLPHYNYWGQGTQVTVSS	low polyreactivity
QVQLVESGGGLVQAGGSLRLSCAASGSTFRYYGMGWYRQAPGKERELVAAISTGGRTNYADSVKGRFTISRDNAKNTVYLQMNSLKPEDTAVYYCAADFLSPAYRPSWYRFDYWGQGTQVTVSS	low polyreactivity
QVQVVESGGGLVQAGGSLRVICAASGSTFYRNAMGWYRQAPGKEWELVAAITRSASSTYYADSVKGRFTISRDNAKNNVDLQLNSLKPEDTAVYYCAAKRRVSHLDYWGQGTQVNVSS	high polyreactivity
QVQLVESGGGLVQAGGRLRLSCAASGSIFDRYAMGWYRQAPGKERELVAAITRSGGSTYYADSVKGRFTISRDNAKNTVYLQMNSLKPEDTAVYYCNKVYPPRSIPYDFCGQGTQVTVSS	low polyreactivity
QDQLVESGGGLVQAGGSLRLSCAASGTIFRGYTMGWYRQAPGKERELVAAISSSGGRTHYADSVKGRFTISRDNAKNTVYLQMNSLKPEDSAVYYCAADYYRTPKSGSSGLDYWGQGTQVTLSS	low polyreactivity
QVQLVESGGGLVQAGGSLRLSCAASGRIFQIYAMGWYRQAPGKERELVATISSGTRTYYADSVKGRFTISRDNAKNTVYLQMNSLKPEDTAVYYCNTGLVYGYDYWGQGTQVTVSS	high polyreactivity
QVHLVESGGGLVQAGGSLRLSCAASGSTLGRYAMGWYRQAPGKERELVAAISWRGGSTYYADSVKGRFTISRDNAKNTDYLQMHSLKPEDTAVYYCADTYRFSEYYYWGQGTQVTVSS	high polyreactivity
QVQLVESGGGLVQAVGSLRLSCAASGFTYSPNAMGWYRQAPGKERELVATISWNGGRTHYADSVKGRFTISRDNAKNTVYLQMNSLKPEDTAVYDCNVVRATGRYYYWGQGTQVTVSS	high polyreactivity
QVQLVESGGGLVQAGGRLRLSCAASGRTFKLYAMGWYRQAPGKERELVAAISGRGGSTYYADSVKGRFTISRDNAKNTVYLQMNSLKPEDTAVYYCNWYGKYEYWGQGTQVTVSS	high polyreactivity
QVQLVESGGGLVQAGGSLRLSCAASGSIYVNKAMGWYRQAPGKERELVAAISRSGTRTYYADSVKGRFTISRDNAKNTVYLQMNSLKPEDTAVYYCAVDYYYRMDYWGQGTQVTVSS	high polyreactivity
QVQLVESGGGLVQAGGSLRLSCAASGTFVTYMGWSRQAPGKERELVAAIRNGGSTNNADTVKGRFTISRDNAKNTVYLQMNSLIPEDTAVYYCAPRFTYSRGYRGGSRTKYDYWGQGTQVTVSS	low polyreactivity
QVQLVESGGGLVQAGGSLRLSCAASGSTFSSNVMGWYRQAPGKERELVAAITGSGSRTYYADSVKGRFTISRDNAKNTVYLQMNSLKPEDTAVYYCNTKGRSRETYGYDYWGQGTQVTVSS	high polyreactivity
QVQLVESGGGLVQAGGSLRLTCAASGFIFAYYVMGWYRQAPGKERELVAAITSSDGITYYADSVKGRFTISRDNAKNTVYLQMNSLKPEDTAVYYCNADVYPDVGWRESDYWGQGTQVTVSS	low polyreactivity
QVQLVESGGGLVQAGGSLRLSCAASGRTFYIYAMGWYRQAPGKERELVAAISGSGGSTYYADSVKGRFTISRDNAKNTVYFQMNSLKPEDTAVYYCATKLRRSRYVRYDYWGQGTQVTVSS	high polyreactivity
